{"source": "paper PMC8892312", "about": "(Proceedings of the National Academy of Sciences of the …, 2022)", "binders": {"B1": {"name": "Gp46 from bacteriophage SPO1 (natural protein)", "chain": "MMTEDQKFKYLTKIEELEAGCFSDWTKEDITGDLKYLKKGIIEESIELIRAVNGLTYSEELHDFTQEIIEELDISPL"}, "B2": {"name": "Gp46^D63N (natural protein)", "chain": "B1 chain with D63N"}, "B3": {"name": "HU of Plasmodium falciparum (natural protein)", "chain": "RRAFINVHKNNIINNKLSVNNPYNKNALYQSSSKIPMSQAITKKQIIEEVSMETKENKKTVEKIMNGIFDNIYKHLENNEKIYIHKFGMFYNIFRKKRCIKNLRTKEDIEIESSHMPHFKFSKVFKELIKQNVKVKKGKGVSTNDHDLDEDDMNMDNINESFKENVNEKLIY"}, "B4": {"name": "HBsu (histone-like protein HU of B. subtilis), recombinant (natural protein)", "chain": "MNKTELINAVAEASELSKKDATKAVDSVFDTILDALKNGDKIQLIGFGNFEVRERSARKGRNPQTGEEIEIPASKVPAFKPGKALKDAVAGK"}, "B5": {"name": "dsDNA (DNA1/DNA2) (dsDNA)", "DNA 1": "TGCTTATCAATTTGTTGCACC", "DNA 2": "GGTGCAACAAATTGATAAGCA"}}, "key": {"[1]": {"biological_target": "B4", "assay": "SPR"}, "[2]": {"biological_target": "B4", "assay": "ITC"}, "HBsu^R53N/R55N/R58N": {"biological_target": "T1, HBsu^R53N/R55N/R58N (Bacillus subtilis, UniProt P08821 1-92, R53N | R55N | R58N)", "T1 sequence": "B4 chain with R53N, R55N, R58N", "assay": "ITC"}, "HBsu^I71A": {"biological_target": "T2, HBsu^I71A (Bacillus subtilis, UniProt P08821 1-92, I71A)", "T2 sequence": "B4 chain with I71A", "assay": "ITC"}, "[3]": {"biological_target": "HU of Acinetobacter baumannii (Acinetobacter baumannii)", "assay": "ITC"}, "[4]": {"biological_target": "B4", "assay": "ITC", "remark": "listed apart in the source"}, "[5]": {"biological_target": "B1", "assay": "ITC"}, "SEC-MALS": {"biological_target": "the molecule itself", "assay": "SEC-MALS"}, "HBsu (HU of B. subtilis)": {"biological_target": "T3, HBsu (HU of B. subtilis) (Bacillus subtilis, UniProt P08821 1-92)", "T3 sequence": "B4 chain", "assay": "ITC"}}, "note": "Substitutions are numbered along the chain they refer to. Names and notes keep the numbering of the source.", "data": [{"binder": "B1", "values": [{"measurement": "Kd", "setting": "[1]", "result": "5870 ± 110", "unit": "nM"}, {"measurement": "Kd", "setting": "[2]", "result": "277 ± 50", "unit": "nM"}, {"measurement": "binding result", "setting": "HBsu^R53N/R55N/R58N", "result": "binds"}, {"measurement": "Kd", "setting": "HBsu^I71A", "result": "6410 ± 3540", "unit": "nM"}, {"measurement": "Kd", "setting": "[3]", "result": 300, "unit": "nM"}]}, {"binder": "B2", "values": [{"measurement": "binding result", "setting": "[4]", "result": "binds"}]}, {"binder": "B3", "values": [{"measurement": "Kd", "setting": "[5]", "result": "~300", "unit": "nM"}]}, {"binder": "B4", "values": [{"measurement": "binding result", "setting": "SEC-MALS", "result": "binds"}]}, {"binder": "B5", "values": [{"measurement": "Kd", "setting": "HBsu (HU of B. subtilis)", "result": "359 ± 38", "unit": "nM"}]}]}
